This passage reports protease stability score results from the NTF2 design screens of Basanta et al. (2020).

The nature of the series: protease stability score; higher = more stable; yeast display proteolysis, trypsin and chymotrypsin.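 Note: log10 excess protease needed over predicted unfolded state with 0 meaning unfolded.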

Regarding “DEHIQKQFQKILEAINQNNPEQFRRLVDKHAQITIGDEVVHGRDDAVRTLEKKMREMKVEIEVDSVNVQGEKLTATLKVELDINGKPNTDTVVVQMRAENGKLKSAHYRVDPTTRRKVKS”, the protease stability score was -0.179.
“DEHKAHRRAQELVEVMKQGDFKRWQEMADPNADVHYGDKRVHGMNEAADVMRQIRNDADHIRVKTYEAKGERIHIDFRVSFNGKQITFDLVVEIRNGTIKTAQFDPDAIRHLES” showed a protease stability score of 0.5.
The value for “DEHKEAEELARQLQRVARHNNPDQFAHMLDKDVKIDIGDKTVHGRENARNMMTELVKDYDSLDAKVDSFDVHNGTIDIKMTFSFNHNGKTTTTSVEFRARKHNGHVRIVYIKYG” was 0.234.
For the sequence “DEHKEAHQFAREMNKALETGDPDRYAQLADPNVKVDIGDKTYKGREDMSQYIEDLLTDADHVSMNIRSIDVQGEKVSLDFEVSNDSNGQQTRRKVKVTAERQGDKLVIVSIKVS”, the protease stability score amounted to 0.184.
The value for “DEHKEASEYIEQAEENMRDNNFRRMMQNADENVKLKYGDKELEGREQVESWANTVQSRADHFEIRVESMTVTGDHISIVLSHIVRHDGRRVKQKIIIIFKVHNGRARIEHIEFK” was 0.044.
The value for “DEHKEREIAERYAQNLTHGNPTEIARQFDPNVKMTVGDKELQGREQVEEALHNFRERVDHHSYDTFTVSNGRVNISAQANVDGKNVKVDVRVVVNNGRVKDVKINPEQWKHVQG” was -0.234.
“DEHKHAEQHVKELIDALETGDPEKVRKNADEDVSAVYGDTTLQGTDQVVKAVHDIRNRYDSVRVEIKTVHIQNGRVVVTATVVLNQNGKNDTVSANIQLKVDNGRFKLVHDQLG” showed a protease stability score of 0.739.
In the case of “DEHKIAKKLADTVMSLMKTGNFDQLAKQADPNVKIEIGDTTIHGREELVKTQKRLNDQIDHVDVRVNKVQMHGDKVNIDMDFVINVNGKNERRKLTVRAKVHNGRAIITEIRYG”, the protease stability score was 1.01.
For the sequence “DEHKIATKQMEEFTEAMKRGDEDRMKSNADENVRIEVGDKEVHGQNQFKQTVANILKRVDHIRIKLRDWRNHNGRVDLVYQVNFDHNGRHKNDKYTVRMRIQGDKAKIEHVKAP”, the protease stability score worked out at 0.349.
On to “DEHKLKEFATRIMEAWEQGDPRKLEELMDPNARYIVGDKTLHGREEAKKRMEEFRKNVDHVEFTSVRAQNGHISITFVANVNGERETRVVDIKVDNGRVKNMDIKHK”, for which the protease stability score worked out at 0.7.
“DEHKLQQVFEKFLKAFNTGDRDLARKLMDPNVKLDVGDKTYHGREQAMRWMHQVRQKADHIQVQSMESSGNKATVDIVIEHNGKSTSEVIRLEVENGHFRHVRKDSP” registered a protease stability score of 0.091.
The figure for “DEHKQIREFQKKQQKWWERGNWEELDKMFPPDARMSIGDTTVHGRESIRKTLKDLVDSADSVSVEFKHFKFHNGRAHVDAVLSVDVNGKKVDVKFNANLQVHNGTLFVDEVVRK” is 0.118; for “DEHKQQERAEDAVRVMQKGDERRFHEQLDENVRVTIGDREVHGRENAVEMFQEWVKRADHIRVDKLEVSNGVVNAHFEVEHNGQTRHQVMVVTYHNGEIQHMTIDRG” it is 0.741.
The value for “DEHKVKEAAERFVRMLEHNDPDTLSKLFDPNVTMQVGDKEYQGRETLMRLVKELKKRVDHIEVKQVHASNGRVNVRMTIQFNGKRFEFTMHIVLHDGRVDTLSLDVRNEEEKRRVDS” was 1.31; that for “DEHKVKEIEDIVRNNDFLKLANMADENARVRYGDKDFHGRERIKTQAQRFETKFDHAEIKSLDVRGNEISVDMVAVFNGRSVRFRMILVVKNGQIKMMEFRATSEKEETKLKEALS” was 1.25; that for “DEHKYRKLAEQINKALEDGDSREMMRLMDKDVKARYGDKTVHGRDDARKLFEDRQDHVDKIQVDDYRVDGDDITVVMTYNHNGRTTVQVLVFRLRNGRIKSASVHSQ” was 0.998.
Sequence “DEHLFKRLVDIIKHGNFEELARQADENARVVVGDRTVKGRNEVEELMQRLRQKIDHVQIDHWSRHGDTVTISFVANVNGRRLEFTLMAAFDNGRIHEVVFHSTNEEVTKIMKEILS” returned a protease stability score of 1.93.
The value for “DEHLHKAVNQLWHAIKTNDPDKVQELADPNVRIQVGDKEIHGREEFAHQVRRTREQMRVRIDIKQVDVQGNKVDIEYDYEYNVNGQPRSDRVTAVFVLHNGKVQRMHIHISEEQLRQQEK” was 0.886.
As for “DEHLLKEAEKHLKQIERGNPDEAVKMVDPNAKFHIGDKTIHGREHWREWVERQVKDQRFKIRLDDMEDHNGKLVLEVTATYDINGKPVTLTVRWEFDIHNGRAQSVRVQVDPKQQEDLKR”, the protease stability score worked out at 0.535.
The figure for “DEHLNRHLSTVLNILQEGDPKKLLQQFDPNAHFQIGDTHVHGREQMDQQMERERRRARTEVKDYKVDDQGEQLVLHMTFRVDRNGKPKEMQATIKAEVHNGHFKEMKFETDR” is -0.089; for “DEHLQEVWENMLRAQENGDPDSFSRLVDPNVDFVYGDQTVHGREQAMTELKRRTDEIRFEIHHVDVRAQNGHIRVRIDQVKEHNGTPHREKTKNTIVADGDKVKSVEVRSDG” it is -0.256.
The value for “DEHLQTLVTDLIRAEQNNDEERLKRLMDPNVRAQYGDQTVSGREEIVQKIIHKNREIHFSQEIKSISAHNGRIHVTVEFTEEHNGEPRRDKMHQTIIAHGDQIKEVRVKSDG” was -0.28; that for “DEHLVEKVEEFLQNLQNNNEEEIQKQVDPNAKIDVGDKTVDGREEANKWAEELKDESRFEIKDVKYESHNGRVRANFTAQVDHNGRPETRKYDITFNWHDGVIKHIDNKTTS” was 0.403; that for “DEHLVRLADRLLTAVRHGDEDRWVEQFDPNATVKIGDKELHGRSQIKTELERERDTSRVNVQRFSIEDQGDKAVVDVEYVITKNGRPQKDRAKATYNVNNGRFKNASMQKVS” was -0.413.
The value for “DEHNAHVLKQAMEAMATGDEKRFVELVDPNARMKVGDKEIKGREDFQEYLTDLHRHARVEVHHIHVNDNGDRFEIDVTQVIEINGRPDTKRMTLEAVAHNGQVKEINLRVPEEEWRRLER” was 0.316.
With “DEHNEAVELMKKLWEAARTGDEEELHKQVDKDVRINVGDKELHGNSQAARKIMERAKRVDHVDVKIQEVTHKGDKIVMRVQFRNTHNGRETDSRYVVWFKNSNGRWVFVKIERG”, the protease stability score is 1.31.
“DEHNHKVAEEIFKALTTGDPDKVRENFDKDASLVIGDKTVNGRKQIKEEVQKRKDEMRIDFKNIDIQVSDGKVRVNVRMQVNINGQPVDFTLDAEFDIHNGKAKQVRFEFDEKDKRTLEQ” returned a protease stability score of -0.059.
The sequence “DEHNMKLASRLVRAVQTNDPDQWVRNVDKNVRVQVGDKTVHGREEFHRQMEKKAREMRYEVQMDQVTVHGDKVRIDITERSNVNGRPHHKRAEMIVHVSNGKVQRVEVQDRK” yielded a protease stability score of -0.162.
In turn, “DEHNNEMARKVLHAWRKGDENRVKRMLDPNARIVIGDKTIHGMEQMQTWVQELKKEITIDLKSVHVQSQGDKANVEFTHKQKDNGKPDSRKVTVIFVFSNGRIKRIQVDDDG” gave a protease stability score of 0.033.
For “DEHNSRQAKEWVKALNHNDTSRLMELVDPNATITVGDKSLTGREQMSEDVDRKREEINVFVNRVEVNSHGDRAKVRIDYQQHENGRPQRNVIVAILQFHNGKIQRVENEHDQ”, the protease stability score was -0.052.
With “DEHNVELARKLRSAVEKNSEKEAKNNIDKDVRAQYGDQEINGREHFAEWVQRLTHHIQWEIKSVTVRVTNGRVDVKMHVREEQNGKPREMDVKMTVVFDNGRIENVQVKKHG”, the protease stability score amounted to 0.448.
As for “DEHNVHKVKSMIRAMKTGDEETAQRLADPNVHVKIGDHTLQGRSQLKEYVKKLKTQAKFDFREVDAQDHNGHVKVNVDVVARINGKPVRYEVIIHVTFHNGKIKSAEYQVPQDYLDTLES”, the protease stability score was found to be 0.522.
The figure for “DEHNVRLAERLLHAIDTNDPKRVKEQVDKDVEYEVGDKRVHGRDDYIKQVETEIRQMSIHIQSMDIHSNGDKVNVRVTYTFTVDGRPQEDTVDYEVQFDNGKVRTVRNRFSEEQEERQKK” is -0.245.
The value for “DEHNYTILQEIWEALKTNNKERFDELADPNARFQVGDKEFHGMETAARHLIRRHTEMRLDMKVDDYRLNGDHLSVDAKVRFRVNGQPNHYQMTLHAQIQGDKLKRMVWRIPESVLERIKS” was 0.66; that for “DEHQRRKAKEFLDALRDGNPDDVKKYVDPNARRTVGDKSIHGRDQISHHVEKLKKKMRIEFRIQTITVHGNHIDIKAKMEFEINGKPNTHTFSQSMHAHNGKIKDIHVRIPEEVLRKSKR” was -0.06; that for “DEHRLATEAIDQFERALQSGNPDEITKMADPDARVHVGDTQLRGREELQRYMHEVRQRHDQVEVHVHRISIDGNKINIHFVLNLNHNGQTDSQSYEMTARVQNGSAVVKEIIQQ” was -0.296.
“DEHRQLEEVLSQIQDALRTNNPDDWADQADENAEFNIGDKSFSGREKVREYAETHMKDADHVSMDVRRVDVRNGRARVSARITAKVNGETKDVTYDMVFKFHNGQAKLVQMNES” gave a protease stability score of 0.996.
Consider “DEHRRAEEAAKRAMEIWKTGNERDAEDLADKNVSIDYGDKKYHGRHQIIKFFQELREDVDHVDLKVNDMDVKPGRAVANLRYVLNNDGRNRHDQHRMTLKLEGDKVYLKKIQQG”, for which the protease stability score is -0.108.
The figure for “DEHRVQTHAEEFMKLLQRGDEKSLADLMDPNASVKIGDKVYHGREQIRHAMRELRERVDHIHVKDIQAQGNHINVDFVLNVNGKHQKYELHVDFSNGRVKSLSMQTS” is 1.69.
The figure for “DEHSDAKRVLEELSKAMENGDEQRVEDQLDENVRINVGENHYHGREHARLWFKQIVDHVDHVRDSMEDYRNQGENFVYVMSVVYQSNGQEKSIRIVYVMKNHNGTVRMVNVHEG” is 1.02; for “DEHSDERRLQTAMHALEQNDPDEIKRQMDKDASARYGEKDVTGRDNAKKAASDFKKKVDHVEIKHYDIQGDKLHAKAKVNINGQHIEIIMVLVAHNGHVQRLQVDHG” it is 0.227; for “DEHSIAEQLAHQFIRAQESGDPDQVDRLADENVRVQIGDKQVKGRDVVRRTMQTWRDRSDHITARLRDVSVRNGQINLLIELDYRQNGQTQHHTLVIVAEVHNGQVRMVQIEIR” it is -0.221.
For “DEHTEKKRADEIKHAMRENDEKKLNDQMPPDVRMDVGDKQLHGRDEVIRHLQTQLRHADHVEIKHVEVTNGRVSIDAVFDVNGTRKRQVVVFVFHNGRAKEIHIEDK”, the protease stability score is 0.861.
As to “DEHTERTLSRLVKRNDEKTMADRADENARAEYGDTTYHGKEEFKKWVNKMEERVDHRDLKEIRVHGNKIKVKMDQEVNGRRVEMEFEAHYHNGRLKFEVMKVRDEEQKEQLKQQQT”, the protease stability score is -0.09.
The value for “DEHTSAHNFIEHEWKVFSTNDKKSMKELIDKNVKIDVGDKQVNGREEAARQEVETAKRVDHVDVKLQHLSVHNGRIKAQFRRVLRVDGQDNDEVLRFVIQLNNGNAQAKDKHET” was 0.115; that for “DEHVEHLVHEIMDALRTNDPDRLRQLMDPNAHAQIGDKQLHGRRTMVDHWQDTLEEIRVSIDVKSFSVKNGRADMTAKVEREDNGKPDDRTADIHIEFHNGKAVRIDVKYKG” was 0.275; that for “DEHVEKRVDEWWKALRQNNPDEANKNMDPNAKLHIGDKTVHGREEAKRQIENRFKEMRFSYKVRHLTAENGEVEIEATFKVEHNGQPRSRSMRMSINVHNGRIVDIQVDIDPRDQQKFRK” was 0.041.
